T1: human GIP receptor (human, UniProt P48546 22-466)
T1 sequence (looked up): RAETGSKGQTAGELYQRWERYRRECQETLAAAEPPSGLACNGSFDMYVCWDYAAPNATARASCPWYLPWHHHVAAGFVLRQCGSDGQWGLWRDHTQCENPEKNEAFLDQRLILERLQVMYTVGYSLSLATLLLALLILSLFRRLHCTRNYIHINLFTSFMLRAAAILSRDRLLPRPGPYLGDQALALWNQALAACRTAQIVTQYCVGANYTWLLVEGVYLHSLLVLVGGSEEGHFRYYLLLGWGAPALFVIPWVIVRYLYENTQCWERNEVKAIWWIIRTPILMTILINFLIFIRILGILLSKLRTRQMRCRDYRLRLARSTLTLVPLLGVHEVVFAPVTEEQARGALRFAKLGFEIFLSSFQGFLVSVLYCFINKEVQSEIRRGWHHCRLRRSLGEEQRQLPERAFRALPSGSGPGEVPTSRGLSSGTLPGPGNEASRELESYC

B1: Compound 36 (peptide)
peptide: YXQGTXTSDYSIXLDKKAQXAFIEFLLEGGPSSXHPPPS
modifications: Aib at 2; αMeF at 6; αMeL at 13; Lys 17 side chain AEEAc-AEEAc-γGlu-CO(CH2)18COOH; Aib at 20; Aib at 34; C-terminal amide (NH2)
B2: Compound 42 (peptide)
peptide: YXQGTXTSDYSILLDKKAQXAFIEFLLESHPSSXHPPXS
modifications: Aib at 2; αMeF at 6; Lys 17 side chain AEEAc-AEEAc-γGlu-CO(CH2)18COOH; Aib at 20; Aib at 34; Ac3c at 38; C-terminal amide (NH2)
B3: Compound 5 (peptide)
peptide: YXQGTXTSDYSIFLDKKAQXAFIEFLLEGGPSSGAPPXS
modifications: Aib at 2; αMeF(2F) at 6; Lys 17 side chain AEEAc-AEEAc-γGlu-CO(CH2)18COOH; Aib at 20; Ac3c at 38; C-terminal amide (NH2)
B4: Compound 41 (peptide)
peptide: YXQGTXTSDYSILLDKKAQXAFIEFLLESHPSSXHPPXS
modifications: Aib at 2; αMeF(2F) at 6; Lys 17 side chain AEEAc-AEEAc-γGlu-CO(CH2)18COOH; Aib at 20; Aib at 34; Ac3c at 38; C-terminal amide (NH2)
B5: Compound 37 (peptide)
peptide: YXQGTXTSDYSIXLDKKAQXAFIEFLLEGRPSSXHPPPS
modifications: Aib at 2; αMeF at 6; αMeL at 13; Lys 17 side chain AEEAc-AEEAc-γGlu-CO(CH2)18COOH; Aib at 20; Aib at 34; C-terminal amide (NH2)
B6: Compound 8 (peptide)
peptide: YXQGTXTSDYSIXLDKKAQXAFIEYLLETGPSSGQPPPS
modifications: Aib at 2; αMeF at 6; αMeL at 13; Lys 17 side chain AEEAc-AEEAc-γGlu-CO(CH2)18COOH; Aib at 20; C-terminal amide (NH2)
B7: Compound 7 (peptide)
peptide: YXQGTXTSDYSIXLDKKAQXAFIEYLLETGPSSGXPPPS
modifications: Aib at 2; αMeF at 6; αMeL at 13; Lys 17 side chain AEEAc-AEEAc-γGlu-CO(CH2)18COOH; Aib at 20; Aib at 35; C-terminal amide (NH2)
B8: Compound 39 (peptide)
peptide: YXQGTXTSDYSIXLDKKAQXAFIEFLLETRPSSXHPPPS
modifications: Aib at 2; αMeF(2F) at 6; αMeL at 13; Lys 17 side chain AEEAc-AEEAc-γGlu-CO(CH2)18COOH; Aib at 20; Aib at 34; C-terminal amide (NH2)
B9: Compound 40 (peptide)
peptide: YXQGTXTSDYSIXLDKKAQXAFIEFLLESHPSSXHPPXS
modifications: Aib at 2; αMeF(2F) at 6; αMeL at 13; Lys 17 side chain AEEAc-AEEAc-γGlu-CO(CH2)18COOH; Aib at 20; Aib at 34; Ac3c at 38; C-terminal amide (NH2)
B10: Compound 43 (peptide)
peptide: YXQGTXTSDYSIXLDKKAQXAFIEYLLESHPSSXHPPXS
modifications: Aib at 2; αMeF(2F) at 6; αMeL at 13; Lys 17 side chain AEEAc-AEEAc-γGlu-CO(CH2)18COOH; Aib at 20; Aib at 34; Ac3c at 38; C-terminal amide (NH2)
B11: Compound 12 (peptide)
peptide: YXQGTXTSDYSIFLDKKAQXAFIEFLLETGPSSGAPPPS
modifications: Aib at 2; αMeF at 6; Lys 17 side chain AEEAc-AEEAc-γGlu-CO(CH2)18COOH; Aib at 20; C-terminal amide (NH2)
B12: Compound 14 (peptide)
peptide: YXQGTXTSDYSIXLDKKAQXAFIEFLLETGPSSGAPPPS
modifications: Aib at 2; αMeF at 6; αMeL at 13; Lys 17 side chain AEEAc-AEEAc-γGlu-CO(CH2)18COOH; Aib at 20; C-terminal amide (NH2)
B13: Compound 3 (peptide)
peptide: YXQGTXTSDYSIXLDKKAQXAFIEYLLESHPSSGAPPXS
modifications: Aib at 2; αMeF at 6; αMeL at 13; Lys 17 side chain AEEAc-AEEAc-γGlu-CO(CH2)18COOH; Aib at 20; Ac3c at 38; C-terminal amide (NH2)
B14: Compound 9 (peptide)
peptide: YXQGTXTSDYSIFLDKKAQXAFIEFLLETGPSSGAPPXS
modifications: Aib at 2; αMeF(2F) at 6; Lys 17 side chain AEEAc-AEEAc-γGlu-CO(CH2)18COOH; Aib at 20; Ac3c at 38; C-terminal amide (NH2)
B15: Compound 6 (peptide)
peptide: YXHGTXTSDYSIXLDKKAQXAFIEYLLEXHPSSGQPPPS
modifications: Aib at 2; αMeF(2F) at 6; αMeL at 13; Lys 17 side chain AEEAc-AEEAc-γGlu-CO(CH2)18COOH; Aib at 20; Aib at 29; C-terminal amide (NH2)
B16: Compound 10 (peptide)
peptide: YXQGTXTSDYSIFLDKKAQXAFIEFLLESHPSSGAPPXS
modifications: Aib at 2; αMeF(2F) at 6; Lys 17 side chain AEEAc-AEEAc-γGlu-CO(CH2)18COOH; Aib at 20; Ac3c at 38; C-terminal amide (NH2)
B17: Compound 13 (peptide)
peptide: YXQGTXTSDYSIFLDKKAQXAFIEYLLETGPSSGAPPPS
modifications: Aib at 2; αMeF at 6; Lys 17 side chain AEEAc-AEEAc-γGlu-CO(CH2)18COOH; Aib at 20; C-terminal amide (NH2)
B18: Compound 4 (peptide)
peptide: YXQGTXTSDYSIFLDKKAQXAFIEYLLEGGPSSGAPPXS
modifications: Aib at 2; αMeF(2F) at 6; Lys 17 side chain AEEAc-AEEAc-γGlu-CO(CH2)18COOH; Aib at 20; Ac3c at 38; C-terminal amide (NH2)

Legend:
Test in all cases: cell-based or functional assay
human GLP-1 receptor = human GLP-1 receptor (human, UniProt P43220 24-463)
human GCG receptor = human GCG receptor (human, UniProt P47871 26-477)
human GIP receptor = target: T1, human GIP receptor

human GCG receptor, sequence (P47871 26-477): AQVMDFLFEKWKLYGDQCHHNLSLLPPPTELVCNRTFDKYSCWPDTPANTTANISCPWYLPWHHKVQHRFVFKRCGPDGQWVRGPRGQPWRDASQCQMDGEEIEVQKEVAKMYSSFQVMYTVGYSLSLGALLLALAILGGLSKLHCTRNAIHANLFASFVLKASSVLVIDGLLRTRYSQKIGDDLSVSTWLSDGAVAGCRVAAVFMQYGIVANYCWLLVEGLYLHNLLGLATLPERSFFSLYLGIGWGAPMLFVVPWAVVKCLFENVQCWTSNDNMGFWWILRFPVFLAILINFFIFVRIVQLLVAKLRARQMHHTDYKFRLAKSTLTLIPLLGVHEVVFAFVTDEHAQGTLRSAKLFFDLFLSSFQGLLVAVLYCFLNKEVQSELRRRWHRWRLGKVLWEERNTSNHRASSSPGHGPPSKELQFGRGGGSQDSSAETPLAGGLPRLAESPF

Row | Binder | cAMP EC50, HEK-293 cells stably overexpressing human GLP-1 R (human GLP-1 receptor) | cAMP Rel. A (%) against human GLP-1 (7-37), human GLP-1 R cells (human GLP-1 receptor) | cAMP Rel. A (%) against human GCG, human GCG R cells (human GCG receptor) | cAMP Rel. A (%) against human GIP, human GIP R cells (human GIP receptor) | cAMP EC50, HEK-293 cells stably overexpressing human GCG R (human GCG receptor) | cAMP EC50, CHO cells stably overexpressing human GIP R (human GIP receptor)
1 | B1 | 0.025 nM | 176% | 127% | 2590% | – | –
2 | B2 | 0.009 nM | 489% | 11.5% | 259% | 0.495 nM | 0.07 nM
3 | B3 | 0.022 nM | 200% | 81.4% | 369% | – | –
4 | B4 | 0.012 nM | 367% | 70.4% | 248% | 0.081 nM | 0.073 nM
5 | B5 | 0.028 nM | 157% | 69.5% | 1210% | 0.082 nM | 0.015 nM
6 | B6 | – | 152% | 80.3% | 1510% | 0.071 nM | –
7 | B7 | 0.01 nM | 440% | 98.3% | 1390% | 0.058 nM | 0.013 nM
8 | B8 | 0.078 nM | 56.4% | 37.2% | 1210% | 0.153 nM | 0.015 nM
9 | B9 | 0.016 nM | 275% | 34.1% | 151% | 0.167 nM | 0.12 nM
10 | B10 | 0.01 nM | 440% | 44.9% | 441% | 0.127 nM | 0.041 nM
11 | B11 | 0.014 nM | 314% | 13.7% | 221% | – | –
12 | B12 | 0.01 nM | 440% | 50% | 1650% | – | 0.011 nM
13 | B13 | – | 100% | 47.5% | 754% | 0.12 nM | 0.024 nM
14 | B14 | 0.017 nM | 259% | 91.9% | 385% | – | –
15 | B15 | 0.02 nM | 220% | 98.3% | 1290% | 0.058 nM | 0.014 nM
16 | B16 | 0.047 nM | 93.6% | 75% | 862% | 0.076 nM | 0.021 nM
17 | B17 | 0.012 nM | 367% | 110% | 566% | – | –
18 | B18 | – | 107% | 80.3% | 318% | 0.071 nM | 0.057 nM
